# Laboratory results from the RNAGym collection of RNA variant scans (doi:10.7554/elife.80360).
# B1: CPEB3 Ribozyme (parent)
# chain: GGGGGCCACAGCAGAAGCGUUCACGUCGCGGCCCCUGUCAGAUUCUGGUGAAUCUGCGAAUUCUGCUGU
# Variants of: B1
# Assay: self-cleavage, relative activity (ratio to wild type); higher = more cleavage; co-transcriptional
row,Variant,self-cleavage
1,A16U G50U,0.862
2,A16U C33G,0.319
3,A16U C33A,0.555
4,A16U C33U,0.865
5,G17C G41C,0.156
6,G17C G41U,0.123
7,G17A U55G,0.16
8,G17C A42U,0.151
9,G17C A42C,0.14
10,A16G U61G,0.732
11,A16G U61C,0.951
12,A16G U61A,0.833
13,G17C G37A,0.0971
14,G17C G37C,0.0977
15,G17C C66U,0.152
16,A16G U49G,0.979
17,A16U U64G,0.545
18,A16U U64A,0.588
19,A16U U64C,0.463
20,G17C C63G,0.103
21,G17C C63U,0.139
22,G17A C45G,0.435
23,G17A C45A,0.366
24,A16G G41C,0.41

row,Variant,self-cleavage
1,A16G G41U,0.472
2,G17C G48U,0.194
3,G17C G48C,0.158
4,A16U A23U,0.867
5,A16U A23G,0.528
6,A16U A51G,0.841
7,A16U A51U,0.853
8,A16G G68U,0.956
9,A16G G68C,0.981
10,A16G G47U,0.998
11,G17A G41C,0.141
12,G17A G41A,0.133
13,G17A G41U,0.183
14,A16U C32U,0.936
15,A16U C32G,0.24
16,G17C A59U,0.0945
17,G17C C39A,0.081
18,G17C C39G,0.115
19,A16U G25C,0.194
20,G17A C39U,0.213
21,G17A C39A,0.201
22,G17A C39G,0.216
23,G17A G65A,0.203
24,G17A G65U,0.225

row,Variant,self-cleavage
1,G17A G65C,0.27
2,G17C C45U,0.121
3,G17C C45G,0.142
4,A16U A60C,0.227
5,A16U A60U,0.251
6,A16U A60G,0.56
7,G17A A42C,0.253
8,G17A A42U,0.314
9,A16U A42G,0.739
10,A16U A42C,0.746
11,A16U U20A,0.124
12,A16U U20C,0.196
13,G17A C29A,0.572
14,G17A C29U,0.858
15,G17A A59G,0.691
16,A16G C66U,0.89
17,G17C G58C,0.198
18,G17C G58A,0.139
19,G17C G50U,0.157
20,G17C G50A,0.142
21,G17C C34G,0.157
22,G17C C34U,0.174
23,G17C C34A,0.18
24,A16U U46C,0.874

row,Variant,self-cleavage
1,A16U G47A,0.893
2,A16U G41C,0.366
3,A16G G30C,0.105
4,A16G G30A,0.612
5,A16G G30U,0.201
6,G17A C35G,0.179
7,G17A C35A,0.136
8,A16U G65A,0.442
9,A16G U38C,0.665
10,A16G U38A,0.767
11,A16U U53A,0.66
12,A16U U53G,0.549
13,G17C C27G,0.156
14,G17C C27A,0.129
15,A16G U43C,0.791
16,A16G U43A,0.784
17,G17A U21G,0.128
18,G17A U21A,0.384
19,G17A U21C,0.169
20,G17A U64A,0.211
21,G17A U64C,0.242
22,G17A U64G,0.256
23,A16G U44A,0.835
24,A16U U38C,0.625

row,Variant,self-cleavage
1,A16U U38A,0.424
2,A16U U61C,0.599
3,A16U U61G,0.902
4,A16U U61A,0.93
5,G17A G25U,0.117
6,G17A G25C,0.147
7,G17A G25A,0.201
8,G17C G28U,0.111
9,G17C G28A,0.127
10,G17C G28C,0.129
11,A16G G65C,0.446
12,G17A A23C,0.483
13,G17A A23G,0.243
14,G17A A23U,0.585
15,A16G U55C,0.534
16,G17A U38G,0.11
17,G17A U38C,0.314
18,G17A G47A,0.541
19,G17A G47C,0.641
20,G17A G19C,0.095
21,G17A G19A,0.154
22,G17A G19U,0.114
23,G17A C32U,0.625
24,G17A C32G,0.13

row,Variant,self-cleavage
1,A16U C39U,0.533
2,A16U C39A,0.317
3,A16U C39G,0.693
4,A16U C22A,0.12
5,G17C G56U,0.115
6,G17C G56C,0.105
7,G17C G56A,0.103
8,A16U U62C,0.734
9,A16U U62G,0.625
10,G17A C18G,0.147
11,G17A C18A,0.116
12,A16U U43G,0.395
13,A16U U43A,0.615
14,A16U C63G,0.361
15,A16U C66A,0.427
16,A16U C66U,0.785
17,A16U C66G,0.356
18,G17A G30U,0.176
19,G17A G30A,0.164
20,G17A U36C,0.225
21,G17A U36G,0.117
22,G17A U36A,0.0937
23,G17A U67G,0.542
24,G17A U67A,0.45

row,Variant,self-cleavage
1,A16G G17U,0.559
2,A16G G17A,0.0854
3,G17C C18U,0.169
4,A16U G30C,0.189
5,A16U G30A,0.22
6,A16U U44C,0.703
7,A16U U44A,0.729
8,G17A G48C,0.599
9,G17C C54A,0.1
10,G17C C54G,0.166
11,G17A C34A,0.2
12,G17A C34U,0.524
13,A16U C35G,0.213
14,A16U C35U,0.768
15,A16U C35A,0.159
16,A16G G56C,0.458
17,A16G G56A,0.703
18,G17A U49G,0.444
19,G17A U49A,0.611
20,G17A U49C,0.486
21,A16G U20C,0.159
22,A16G U20G,0.155
23,A16G U20A,0.129
